Assay results reported in paper PMC3359993, “Polydnavirus Ank Proteins Bind NF-κB Homodimers and Inhibit Processing of Relish” (PLoS Pathogens, 2012).

Key:
[1] = molecular target: T1, Rel-49, the C-terminal IkB domain of Relish, N-terminal StrepTagII and C-terminal His tag (Drosophila melanogaster); assay: SPR; Biacore 3000, room temperature; IkB or Ank immobilised on CM5 by amine coupling (about 5500 RU); Rel homodimer as analyte, kinetic titration, five doubling injections (typically 160 nM to 2.56 uM), 60 or 90 s, 30 uL/min; 10 mM HEPES pH 7.4, 150 mM NaCl, 3.4 mM EDTA, 0.005% P20; 1:1 Langmuir fit; settings: both partners purified
T1 construct: Rel-49, the C-terminal IkB fragment that is left after cleavage of compound Relish (Rel-110), Drosophila, GenBank AAF54333; Cloned without a stop codon into pET51-EK-LIC; source: E. coli BL21 (DE3), purified
T1 sequence (Q94527 whole entry, looked up): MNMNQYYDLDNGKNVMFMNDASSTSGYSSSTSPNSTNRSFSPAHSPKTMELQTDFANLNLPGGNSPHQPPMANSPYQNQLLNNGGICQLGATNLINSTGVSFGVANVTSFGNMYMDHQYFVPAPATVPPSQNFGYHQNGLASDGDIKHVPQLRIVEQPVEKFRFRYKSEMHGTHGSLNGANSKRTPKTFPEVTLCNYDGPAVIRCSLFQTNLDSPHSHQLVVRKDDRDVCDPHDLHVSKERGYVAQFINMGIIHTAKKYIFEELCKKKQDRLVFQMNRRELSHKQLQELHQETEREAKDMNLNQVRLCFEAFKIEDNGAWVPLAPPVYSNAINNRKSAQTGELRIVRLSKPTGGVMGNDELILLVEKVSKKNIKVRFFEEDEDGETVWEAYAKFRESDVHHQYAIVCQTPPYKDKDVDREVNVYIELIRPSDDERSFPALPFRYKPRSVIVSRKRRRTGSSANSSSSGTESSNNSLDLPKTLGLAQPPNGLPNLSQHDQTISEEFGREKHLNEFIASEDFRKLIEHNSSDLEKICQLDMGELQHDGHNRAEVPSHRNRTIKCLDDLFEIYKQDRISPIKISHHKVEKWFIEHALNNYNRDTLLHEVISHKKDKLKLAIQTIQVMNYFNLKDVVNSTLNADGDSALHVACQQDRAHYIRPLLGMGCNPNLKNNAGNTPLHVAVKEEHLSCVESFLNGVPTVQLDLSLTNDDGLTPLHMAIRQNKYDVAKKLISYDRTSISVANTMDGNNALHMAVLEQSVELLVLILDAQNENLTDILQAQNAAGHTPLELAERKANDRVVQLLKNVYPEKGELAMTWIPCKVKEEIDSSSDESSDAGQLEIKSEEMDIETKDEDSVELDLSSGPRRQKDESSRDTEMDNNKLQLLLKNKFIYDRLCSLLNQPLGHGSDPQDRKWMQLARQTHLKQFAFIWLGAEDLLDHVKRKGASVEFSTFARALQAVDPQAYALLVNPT

[2] = molecular target: T2, Ank-H4 of Microplitis demolitor bracovirus, full length, N-terminal His tag (Microplitis demolitor bracovirus (MdBV)); assay: as above; settings: both partners purified
T2 construct: Ank-H4, Microplitis demolitor bracovirus (MdBV), GenBank AY875685; consists of only an ankyrin repeat domain; amplified from MdBV genomic DNA; pET-30-EK-LIC; source: E. coli BL21 (DE3), purified (Ni-NTA); not shown: His6, N-terminal, kept

[3] = molecular target: T3, Dif, truncated (RHD, NLS and 20 additional C-terminal residues), StrepTagII-tagged (Drosophila melanogaster); assay: SEC; gel filtration of each purified recombinant protein, compared with molecular mass standards; settings: both partners purified
T3 chain: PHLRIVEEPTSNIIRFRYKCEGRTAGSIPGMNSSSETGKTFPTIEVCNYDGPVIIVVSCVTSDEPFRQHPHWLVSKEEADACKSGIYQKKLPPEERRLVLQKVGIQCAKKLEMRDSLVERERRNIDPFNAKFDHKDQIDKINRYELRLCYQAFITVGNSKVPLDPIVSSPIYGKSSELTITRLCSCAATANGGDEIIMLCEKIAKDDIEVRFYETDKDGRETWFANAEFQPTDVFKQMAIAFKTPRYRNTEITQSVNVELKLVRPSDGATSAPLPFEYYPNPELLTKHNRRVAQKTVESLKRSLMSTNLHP

[4] = molecular target: T3, Dif, truncated (RHD, NLS and 20 …); assay: SPR; Biacore 3000, room temperature; Dif immobilised on CM5 by amine coupling, Cactus as analyte (Table 1); kinetic titration; 10 mM HEPES pH 7.4, 150 mM NaCl, 3.4 mM EDTA, 0.005% P20; 1:1 Langmuir fit; settings: both partners purified
[5] = molecular target: T4, Cactus, truncated form consisting of its ankyrin repeat domain, N-terminal His tag (Drosophila melanogaster); assay: SPR; Biacore 3000, room temperature; IkB or Ank immobilised on CM5 by amine coupling (about 5500 RU); Rel homodimer as analyte, kinetic titration, five doubling injections (typically 160 nM to 2.56 uM), 60 or 90 s, 30 uL/min; 10 mM HEPES pH 7.4, 150 mM NaCl, 3.4 mM EDTA, 0.005% P20; 1:1 Langmuir fit; settings: both partners purified
T4 chain: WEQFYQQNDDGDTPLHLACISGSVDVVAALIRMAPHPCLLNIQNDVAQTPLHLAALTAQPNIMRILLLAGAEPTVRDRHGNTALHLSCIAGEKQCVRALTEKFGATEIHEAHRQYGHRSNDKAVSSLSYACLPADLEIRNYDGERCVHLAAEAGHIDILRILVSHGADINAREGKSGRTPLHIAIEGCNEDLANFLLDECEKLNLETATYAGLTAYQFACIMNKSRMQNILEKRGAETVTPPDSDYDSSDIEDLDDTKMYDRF

[6] = molecular target: the molecule itself; assay: SEC; gel filtration of each purified recombinant protein, compared with molecular mass standards

T2 sequence (Q5I144 whole entry, the tested form may be a part): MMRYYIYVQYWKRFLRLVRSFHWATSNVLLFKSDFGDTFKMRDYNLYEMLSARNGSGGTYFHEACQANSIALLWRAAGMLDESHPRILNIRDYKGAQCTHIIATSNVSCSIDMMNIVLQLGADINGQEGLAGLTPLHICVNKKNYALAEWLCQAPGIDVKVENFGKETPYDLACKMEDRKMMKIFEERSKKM

B1: Dif, truncated (RHD, NLS and 20 additional C-terminal residues), StrepTagII-tagged (domain or fragment)
chain: PHLRIVEEPTSNIIRFRYKCEGRTAGSIPGMNSSSETGKTFPTIEVCNYDGPVIIVVSCVTSDEPFRQHPHWLVSKEEADACKSGIYQKKLPPEERRLVLQKVGIQCAKKLEMRDSLVERERRNIDPFNAKFDHKDQIDKINRYELRLCYQAFITVGNSKVPLDPIVSSPIYGKSSELTITRLCSCAATANGGDEIIMLCEKIAKDDIEVRFYETDKDGRETWFANAEFQPTDVFKQMAIAFKTPRYRNTEITQSVNVELKLVRPSDGATSAPLPFEYYPNPELLTKHNRRVAQKTVESLKRSLMSTNLHP
modifications: homodimer by gel filtration; StrepTagII left out. Limits: RHD start 78 and NLS end 368 from UniProt features, plus 20 residues; exact limits are only in Figure 1A
[1]
  Kd: 1840 nM
  koff: 0.000966 s⁻¹
  kon: 524 M⁻¹ s⁻¹
[2]
  Kd: 581 nM
  koff: 0.00384 s⁻¹
  kon: 6620 M⁻¹ s⁻¹

B2: Dif, truncated (RHD, NLS and 20 additional C-terminal residues), StrepTagII-tagged (domain or fragment)
chain: PHLRIVEEPTSNIIRFRYKCEGRTAGSIPGMNSSSETGKTFPTIEVCNYDGPVIIVVSCVTSDEPFRQHPHWLVSKEEADACKSGIYQKKLPPEERRLVLQKVGIQCAKKLEMRDSLVERERRNIDPFNAKFDHKDQIDKINRYELRLCYQAFITVGNSKVPLDPIVSSPIYGKSSELTITRLCSCAATANGGDEIIMLCEKIAKDDIEVRFYETDKDGRETWFANAEFQPTDVFKQMAIAFKTPRYRNTEITQSVNVELKLVRPSDGATSAPLPFEYYPNPELLTKHNRRVAQKTVESLKRSLMSTNLHP
modifications: homodimer by gel filtration; StrepTagII left out. Limits: RHD start 78 and NLS end 368 from UniProt features, plus 20 residues; exact limits are only in Figure 1A / homodimer by gel filtration …
[3]
  stoichiometry N: 2

B3: Cactus, truncated form consisting of its ankyrin repeat domain, N-terminal His tag (domain or fragment)
chain: WEQFYQQNDDGDTPLHLACISGSVDVVAALIRMAPHPCLLNIQNDVAQTPLHLAALTAQPNIMRILLLAGAEPTVRDRHGNTALHLSCIAGEKQCVRALTEKFGATEIHEAHRQYGHRSNDKAVSSLSYACLPADLEIRNYDGERCVHLAAEAGHIDILRILVSHGADINAREGKSGRTPLHIAIEGCNEDLANFLLDECEKLNLETATYAGLTAYQFACIMNKSRMQNILEKRGAETVTPPDSDYDSSDIEDLDDTKMYDRF
modifications: Limits come from the Table S1 cactus primers. The forward primer, after the LIC extension …, encodes WEQFYQQN. The reverse primer encodes DTKMYDRF followed by a stop. Positions were …
[4]
  Kd: 110 nM
  koff: 0.00578 s⁻¹
  kon: 52500 M⁻¹ s⁻¹

B4: Relish, truncated (RHD, NLS and 20 additional C-terminal residues), StrepTagII-tagged (domain or fragment)
chain: KHVPQLRIVEQPVEKFRFRYKSEMHGTHGSLNGANSKRTPKTFPEVTLCNYDGPAVIRCSLFQTNLDSPHSHQLVVRKDDRDVCDPHDLHVSKERGYVAQFINMGIIHTAKKYIFEELCKKKQDRLVFQMNRRELSHKQLQELHQETEREAKDMNLNQVRLCFEAFKIEDNGAWVPLAPPVYSNAINNRKSAQTGELRIVRLSKPTGGVMGNDELILLVEKVSKKNIKVRFFEEDEDGETVWEAYAKFRESDVHHQYAIVCQTPPYKDKDVDREVNVYIELIRPSDDERSFPALPFRYKPRSVIVSRKRRRTGSSANSSSSGTESSNNSLD
modifications: Limits come from the Table S1 cactus primers. The forward primer, after the LIC extension …, encodes WEQFYQQN. The reverse primer encodes DTKMYDRF followed by a stop. Positions were …
[5]
  Kd: 2190 nM
  koff: 0.00241 s⁻¹
  kon: 1100 M⁻¹ s⁻¹

B5: Dif, truncated (RHD, NLS and 20 additional C-terminal residues), N-terminal thioredoxin fusion (domain or fragment)
chain: PHLRIVEEPTSNIIRFRYKCEGRTAGSIPGMNSSSETGKTFPTIEVCNYDGPVIIVVSCVTSDEPFRQHPHWLVSKEEADACKSGIYQKKLPPEERRLVLQKVGIQCAKKLEMRDSLVERERRNIDPFNAKFDHKDQIDKINRYELRLCYQAFITVGNSKVPLDPIVSSPIYGKSSELTITRLCSCAATANGGDEIIMLCEKIAKDDIEVRFYETDKDGRETWFANAEFQPTDVFKQMAIAFKTPRYRNTEITQSVNVELKLVRPSDGATSAPLPFEYYPNPELLTKHNRRVAQKTVESLKRSLMSTNLHPSKQV
[6]
  stoichiometry N: 2

B6: Dorsal, truncated (RHD, NLS and 20 additional C-terminal residues), StrepTagII-tagged (domain or fragment)
chain: PYVKITEQPAGKALRFRYECEGRSAGSIPGVNSTPENKTYPTIEIVGYKGRAVVVVSCVTKDTPYRPHPHNLVGKEGCKKGVCTLEINSETMRAVFSNLGIQCVKKKDIEAALKAREEIRVDPFKTGFSHRFQPSSIDLNSVRLCFQVFMESEQKGRFTSPLPPVVSEPIFDKKAMSDLVICRLCSCSATVFGNTQIILLCEKVAKEDISVRFFEEKNGQSVWEAFGDFQHTDVHKQTAITFKTPRYHTLDITEPAKVFIQLRRPSDGVTSEALPFEYVPMDSDPAHLRRKRQKTGGDPMHLLLQQQQKQQLQN
modifications: Limits come from the Table S1 cactus primers. The forward primer, after the LIC extension …, encodes WEQFYQQN. The reverse primer encodes DTKMYDRF followed by a stop. Positions were …
[5]
  Kd: 195 nM
  koff: 0.00193 s⁻¹
  kon: 9890 M⁻¹ s⁻¹
